Assay results published in patent WO2011095545A1 (dated 2011).

Assays:
human serum albumin = biological target: T1, human serum albumin (human, UniProt P02768 25-609); test: SPR (BIAcore 3000), HSA on CM5 chip, 2D3-peptide fusion injected
T1 construct: Bought protein (Sigma, 99% pure); also called HSA

cynomolgus serum albumin = biological target: T2, cynomolgus serum albumin (cynomolgus monkey, UniProt A2V9Z4 25-608); test: SPR (BIAcore 3000), 200 nM and 1 uM fusion injected on CM5 chip with ~900 RU cynomolgus serum albumin
T2 construct: also called cyno serum albumin
T2 sequence (A2V9Z4 25-608 limits assumed): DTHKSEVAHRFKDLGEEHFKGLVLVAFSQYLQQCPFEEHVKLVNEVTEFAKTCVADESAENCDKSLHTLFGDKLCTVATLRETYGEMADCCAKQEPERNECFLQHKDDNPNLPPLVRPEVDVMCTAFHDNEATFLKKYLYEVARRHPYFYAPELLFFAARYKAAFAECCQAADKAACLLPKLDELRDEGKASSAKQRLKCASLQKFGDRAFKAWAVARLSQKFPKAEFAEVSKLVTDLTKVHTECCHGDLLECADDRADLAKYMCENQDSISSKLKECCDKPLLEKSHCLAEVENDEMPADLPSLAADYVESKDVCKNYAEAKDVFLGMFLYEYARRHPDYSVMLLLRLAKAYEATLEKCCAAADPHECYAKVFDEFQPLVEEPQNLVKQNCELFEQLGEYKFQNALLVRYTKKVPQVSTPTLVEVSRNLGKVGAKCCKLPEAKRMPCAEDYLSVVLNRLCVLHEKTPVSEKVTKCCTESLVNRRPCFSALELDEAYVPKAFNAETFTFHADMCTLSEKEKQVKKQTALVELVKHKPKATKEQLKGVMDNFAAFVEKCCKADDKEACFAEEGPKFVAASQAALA

T1 sequence (P02768 25-609 limits assumed): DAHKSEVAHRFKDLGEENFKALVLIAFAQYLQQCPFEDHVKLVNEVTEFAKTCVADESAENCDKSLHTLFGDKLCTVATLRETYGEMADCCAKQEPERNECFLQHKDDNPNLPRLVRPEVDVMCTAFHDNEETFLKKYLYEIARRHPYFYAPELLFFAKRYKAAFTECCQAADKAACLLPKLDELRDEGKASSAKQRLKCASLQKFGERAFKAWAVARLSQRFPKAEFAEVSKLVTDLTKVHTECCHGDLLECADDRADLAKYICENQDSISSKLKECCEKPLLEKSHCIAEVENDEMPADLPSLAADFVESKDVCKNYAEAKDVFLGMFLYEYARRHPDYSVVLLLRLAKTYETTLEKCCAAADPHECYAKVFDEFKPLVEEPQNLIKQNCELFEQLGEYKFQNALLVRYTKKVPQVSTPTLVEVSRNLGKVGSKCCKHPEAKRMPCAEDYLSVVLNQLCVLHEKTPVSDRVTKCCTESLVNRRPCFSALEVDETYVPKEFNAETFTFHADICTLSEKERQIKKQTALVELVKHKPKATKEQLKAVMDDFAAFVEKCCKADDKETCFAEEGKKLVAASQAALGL

B1: EXPGMP 80B10 (as a fusion with the Nanobody 2D3) (other)
chain: EVQLVESGGSLVQPGGSLRLSCAASGFTFDDYAMSWVRQVPGKGLEWVSSINWSGTHTDYADSVKGRFTISRNNANNTLYLQMNSLKSEDTAVYYCAKNWRDAGTTWFEKSGSAGQGTQVTVSSGGGGSGGGSYWWERRDWDFDVFGGGTPAAAEQKLISEEDLNGAAHHHHHH
notes: Nanobody-peptide fusion, expressed in E. coli, purified by IMAC/SEC; also called 2D3-9GS-EXP80B10
Work on B1 yielded a Kd (human serum albumin) of 16 nM.

B2: 5F7-9GS-EXP89D03-9GS-EXP89D03 (other)
chain: EVQLVESGGGLVQAGGSLRLSCAASGITFSINTMGWYRQAPGKQRELVALISSIGDTYYADSVKGRFTISRDNAKNTVYLQMNSLKPEDTAVYYCKRFRTAAQGTDYWGQGTQVTVSSGGGGSGGGSWWEQDRDWDFDVFGGGTPGGGGSGGGSWWEQDRDWDFDVFGGGTP
notes: Fusion of Nanobody 5F7 with a tandem repeat of peptide 89D03; also called EXP486
B2: binds (cynomolgus serum albumin).
